Test results published in publication PMC8205236.

Key:
[1] = biological target: FZD5-FZD6 chimeric protein (human); assay: FRET or BRET; NanoBiT/BRET saturation binding on live HEK293A cells (setup 1): eGFP-WNT-3A conditioned medium 16.7 pM to 16.7 nM, 5% FBS, 10 mM HEPES, 240 min at 37 °C, then LgBiT and furimazine for 10 min; one-site specific model (normalised logarithmic fits for pKd)
[2] = biological target: FZD5-FZD7 chimeric protein (human); assay: as above

Chain of eGFP-tagged mouse WNT-3A (P27467 19-352): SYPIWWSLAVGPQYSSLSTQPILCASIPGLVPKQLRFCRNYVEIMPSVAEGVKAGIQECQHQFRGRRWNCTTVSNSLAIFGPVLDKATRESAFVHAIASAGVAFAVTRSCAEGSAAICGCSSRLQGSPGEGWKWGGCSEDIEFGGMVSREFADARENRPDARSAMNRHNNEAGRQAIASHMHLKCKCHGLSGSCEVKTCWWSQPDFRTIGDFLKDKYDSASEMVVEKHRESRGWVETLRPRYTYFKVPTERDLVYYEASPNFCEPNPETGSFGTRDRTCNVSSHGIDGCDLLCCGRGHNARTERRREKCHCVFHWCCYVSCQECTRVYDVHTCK

A Kd [1] of 4.4 nM and a Kd [2] of 5 nM were found for “eGFP-tagged mouse WNT-3A (from UniProt P27467 19-352) (ligand)” in this work.
